Experimental data reported in PMC12597760.
Read-outs that look alike come from different tables or passages of the source. Each block holds one substance with its values, some of them ahead of it.

Experiments:
TGF-β2 [1] = target: TGF-β2
TGF-β1 [2] = target: TGF-β1
Target sequence in this assay (P01137 279-390): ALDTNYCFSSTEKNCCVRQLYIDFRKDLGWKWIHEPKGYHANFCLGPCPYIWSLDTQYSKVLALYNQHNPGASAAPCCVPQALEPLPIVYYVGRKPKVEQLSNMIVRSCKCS

TGF-β1 [3] = target: TGF-β1; remark: listed apart in the source
Target sequence in this assay (P01137 279-390): as above

TGF-β2 [4] = target: TGF-β2; remark: listed apart in the source
Target sequence in this assay (P61812 303-414): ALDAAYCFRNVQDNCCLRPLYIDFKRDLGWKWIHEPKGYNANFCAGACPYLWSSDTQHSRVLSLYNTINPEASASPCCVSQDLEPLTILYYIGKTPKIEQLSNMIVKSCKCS

Synagis-T22d35 = Synagis-T22d35 (UniProt P37173); experiment: SPR
Synagis = experiment: SPR
TGF-β1 [5] = target: TGF-β1; remark: listed apart in the source

Chain of Synagis (heavy, as listed by the source, chain 1 of 2): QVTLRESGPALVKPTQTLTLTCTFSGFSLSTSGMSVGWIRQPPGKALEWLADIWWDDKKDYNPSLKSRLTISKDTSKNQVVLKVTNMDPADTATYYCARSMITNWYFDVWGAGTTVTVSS
Chain of Synagis (light, as listed by the source, chain 2 of 2): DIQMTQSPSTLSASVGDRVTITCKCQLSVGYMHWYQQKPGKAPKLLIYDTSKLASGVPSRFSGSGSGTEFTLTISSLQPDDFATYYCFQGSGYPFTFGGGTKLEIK
Chain of RSV-F (P03420 26-574): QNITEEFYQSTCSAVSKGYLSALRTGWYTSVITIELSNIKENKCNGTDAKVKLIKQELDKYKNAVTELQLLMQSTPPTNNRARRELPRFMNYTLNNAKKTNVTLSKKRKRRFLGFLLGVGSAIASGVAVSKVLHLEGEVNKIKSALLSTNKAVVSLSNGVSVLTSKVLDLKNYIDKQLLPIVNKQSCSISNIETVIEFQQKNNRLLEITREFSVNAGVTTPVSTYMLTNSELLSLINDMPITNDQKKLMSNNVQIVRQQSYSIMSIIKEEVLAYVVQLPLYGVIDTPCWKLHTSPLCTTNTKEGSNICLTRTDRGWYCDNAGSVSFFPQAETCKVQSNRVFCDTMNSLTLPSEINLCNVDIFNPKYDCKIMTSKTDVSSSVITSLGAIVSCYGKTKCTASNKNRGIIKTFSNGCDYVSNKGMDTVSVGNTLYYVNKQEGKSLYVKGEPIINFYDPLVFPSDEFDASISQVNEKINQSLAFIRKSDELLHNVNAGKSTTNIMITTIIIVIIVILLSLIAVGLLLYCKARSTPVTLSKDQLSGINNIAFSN
Chain of T22d35-hIgG2Fc(CC)ΔK (P37173 other isoform, or with tags, fused parts or gaps mutant): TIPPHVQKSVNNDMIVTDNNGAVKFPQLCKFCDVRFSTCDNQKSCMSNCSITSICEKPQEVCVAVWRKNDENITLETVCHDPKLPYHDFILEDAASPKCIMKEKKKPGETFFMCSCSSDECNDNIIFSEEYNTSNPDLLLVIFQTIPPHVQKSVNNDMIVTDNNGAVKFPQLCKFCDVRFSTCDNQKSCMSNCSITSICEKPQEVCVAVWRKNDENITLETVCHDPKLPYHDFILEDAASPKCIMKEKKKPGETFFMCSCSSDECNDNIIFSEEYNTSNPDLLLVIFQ
Chain of T22d35 (single-chain fusion of two TGF-β type II receptor ectodomains) (P37173 other isoform, or with tags, fused parts or gaps): as the sequence (P37173 other isoform, or with tags, fused parts or gaps mutant) above
Chain of Avastin-T22d35 (P37173 whole entry, looked up): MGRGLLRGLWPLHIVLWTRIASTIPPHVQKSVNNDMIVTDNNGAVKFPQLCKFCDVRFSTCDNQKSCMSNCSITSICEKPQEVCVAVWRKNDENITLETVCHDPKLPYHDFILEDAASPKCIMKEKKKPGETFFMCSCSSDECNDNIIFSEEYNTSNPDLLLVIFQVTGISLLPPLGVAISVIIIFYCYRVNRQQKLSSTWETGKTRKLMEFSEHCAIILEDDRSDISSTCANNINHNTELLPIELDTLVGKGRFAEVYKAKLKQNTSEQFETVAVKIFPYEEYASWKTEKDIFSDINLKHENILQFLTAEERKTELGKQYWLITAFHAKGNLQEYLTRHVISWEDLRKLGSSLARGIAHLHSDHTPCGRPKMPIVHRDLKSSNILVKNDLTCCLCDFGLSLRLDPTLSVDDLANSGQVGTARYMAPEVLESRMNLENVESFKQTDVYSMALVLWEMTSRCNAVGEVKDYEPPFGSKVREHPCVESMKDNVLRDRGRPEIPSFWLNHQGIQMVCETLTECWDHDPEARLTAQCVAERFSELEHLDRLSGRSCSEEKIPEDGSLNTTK
Chain of hIgG2Fc(CC)ΔK-T22d35 (P37173 other isoform, or with tags, fused parts or gaps mutant): as the sequence (P37173 other isoform, or with tags, fused parts or gaps mutant) above

IC50 (nM) of neutralization of TGF-β3 (10 pM), A549 IL-11 release assay (TGF-β3): 0.00249 nM
IC50 (nM) of neutralization of TGF-β2 (10 pM), A549 IL-11 release assay (TGF-β2 [1]): 4.35 nM
Substance: Herceptin-T22d35 (from UniProt P37173 23-166; P37173 23-166) (antibody)

IC50 of neutralization of TGF-β1, A549 IL-11 release assay (Figure 2B) (TGF-β1 [2]): 0.5 nM
IC50 (nM) of neutralization of TGF-β1 (10 pM), A549 IL-11 release assay (TGF-β1 [3]): 3.25 nM
Substance: T22d35 (single-chain fusion of two TGF-β type II receptor ectodomains) (from UniProt P37173 23-166; P37173 23-166) (domain or fragment)

IC50 (nM) of neutralization of TGF-β3 (10 pM), A549 IL-11 release assay (TGF-β3): 0.00428 nM
IC50 (nM) of neutralization of TGF-β2 (10 pM), A549 IL-11 release assay (TGF-β2 [1]): 3.33 nM
Substance: Cetuximab-T22d35 (from UniProt P37173 23-166; P37173 23-166) (antibody)

IC50 (nM) of neutralization of TGF-β3 (10 pM), A549 IL-11 release assay (TGF-β3): 0.0332 nM
Substance: Cetuximab-T2m (from UniProt P37173 23-166) (antibody)

IC50 (nM) of neutralization of TGF-β2 (10 pM), A549 IL-11 release assay (TGF-β2 [4]): 1.41 nM
Substance: hIgG2Fc(CC)ΔK-T22d35 (from UniProt P37173 23-166; P37173 23-166) (Fc fusion)

Substance: RSV-F (from UniProt P03420 26-574) (natural protein)
Kd (Synagis-T22d35): 4.1 nM
koff (Synagis-T22d35): 0.00142 s⁻¹
kon (Synagis-T22d35): 35500 M⁻¹ s⁻¹
Kd (Synagis): 6.6 nM
koff (Synagis): 0.00168 s⁻¹
kon (Synagis): 25700 M⁻¹ s⁻¹

IC50 (nM) of neutralization of TGF-β1 (10 pM), A549 IL-11 release assay (TGF-β1 [5]): 0.00235 nM
Substance: FC5VHH-Fc-T22d35 (from UniProt P37173 23-166; P37173 23-166) (Fc fusion)

IC50 (nM) of neutralization of TGF-β2 (10 pM), A549 IL-11 release assay (TGF-β2 [4]): 4.76 nM
IC50 (nM) of neutralization of TGF-β1 (10 pM), A549 IL-11 release assay (TGF-β1 [3]): 0.00331 nM
Substance: T22d35-hIgG2Fc(CC)ΔK (from UniProt P37173 23-166; P37173 23-166) (Fc fusion)

IC50 (nM) of neutralization of TGF-β3 (10 pM), A549 IL-11 release assay (TGF-β3): 0.00276 nM
IC50 (nM) of neutralization of TGF-β2 (10 pM), A549 IL-11 release assay (TGF-β2 [1]): 2.99 nM
Substance: Avastin-T22d35 (from UniProt P37173 23-166; P37173 23-166) (antibody)

IC50 (nM) of neutralization of TGF-β1 (10 pM), A549 IL-11 release assay (TGF-β1 [5]): 0.00569 nM
Substance: FC5VHH-Fc-T2m (from UniProt P37173 23-166) (Fc fusion)
